The record followed here is paper PMC6206164, “Fibroblast Growth Factor Binding Protein 3 (FGFBP3) impacts carbohydrate and lipid metabolism” (Scientific Reports, 2018).

First the molecules themselves.
B1: Recombinant human FGF21 (ligand, UniProt Q9NSA1 29-209, looked up)
chain: HPIPDSSPLLQFGGQVRQRYLYTDDAQQTEAHLEIREDGTVGGAADQSPESLLQLKALKPGVIQILGVKTSRFLCQRPDGALYGSLHFDPEACSFRELLLEDGYNVYQSEAHGLPLHLPGNKSPHRDPAPRGPARFLPLPGLPPALPEPPGILAPQPPDVGSSDPLSMVGPSQGRSPSYAS
notes: Fibroblast growth factor 21 (FGF21), human, recombinant; source: bought: R&D Systems
B2: MBP-tagged human recombinant BP3 devoid of its signal peptide (natural protein, UniProt Q8TAT2 27-258, looked up)
chain: RREKGAASNVAEPVPGPTGGSSGRFLSPEQHACSWQLLLPAPEAAAGSELALRCQSPDGARHQCAYRGHPERCAAYAARRAHFWKQVLGGLRKKRRPCHDPAPLQARLCAGKKGHGAELRLVPRASPPARPTVAGFAGESKPRARNRGRTRERASGPAAGTPPPQSAPPKENPSERKTNEGKRKAALVPNEERPMGTGPDPDGLDGNAELTETYCAEKWHSLCNFFVNFWNG
notes: also called FGFBP3

The target in assay [1] is B2. The assay can be described thus: ELISA; competitive binding; increasing excess of KLB or KLa bound to immobilised FGF19 or FGF21 (2.5 μg/ml) for 1 h before BP3 or MBP control (0.15 μg/ml); MaxiSorp plates. To be noted: both partners purified. In general terms: ELISA stands for enzyme-linked immunosorbent assay.
For assay [2], the target named is T1, Human recombinant FGFR4 Fc Chimera (human, UniProt P22455 22-369).
T1 construct: Fibroblast growth factor receptor 4 (FGFR4), human, as Fc chimera; Commercial Fc chimeras of this kind hold the extracellular domain; source: bought: R&D Systems
Nature of the assay: binding to plate-coated receptor detected by western blot; cell-free; FGFR4 Fc chimera coated on MaxiSorp plates; FGF19 (2 μg/ml) ± BP3 or MBP control (1 μg/ml), 2 h room temperature; bound proteins blotted with anti-FGFR4, anti-MBP, anti-FGF19. Conditions: both partners purified. (In general: Immunoblotting shows a protein as a band on a membrane.)

On to B1, for which the binding result in assay [1] was “binds”.
Take B2: in assay [2], the binding result is recorded as “binds”.
